Data from IntAct's records for PubMed 12361576.

B1: Cofilin-1-A (Xenopus laevis (African clawed frog)), P45695 (parent)
chain: MASGVMVSDDVIKVFNEMKVRHQLSPEDAKKRKKAVVFCLSDDKKTIILEPGKEILQGDIGCNVEDPYKTFVKMLPRNDCRYALYDALYETKETKKEDLVFVFWAPEEASLKSKMIYASSKDAIKKRLPGIKHEWQINTYEDVNDPCNLADKLGGNTVVSLEGKSVRS

Variants of: B1
Settings: with 1433z_bovin YWHAZ

Row | Variant | effect of a mutation on the interaction
1 | S3A | decreasing interaction
